Data taken from paper PMC314469, “Protein Interaction Networks by Proteome Peptide Scanning” (PLoS Biology, 2004).

T1: amphyphisin SH3 (AMPH_HUMAN), P49418
T1 chain: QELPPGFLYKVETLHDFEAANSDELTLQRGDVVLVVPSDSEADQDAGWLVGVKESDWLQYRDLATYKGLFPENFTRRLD

B1: Q9UFB1 199-212 (peptide)
chain: ASLPPPRPQRPAET
B2: Q9UHC9 721-734 (peptide)
chain: YQRLPRRPGEPREV
B3: Q9NZY4 11-24 (peptide)
chain: YSLLFRRPPPSPSP
B4: Q9BQQ4 1075-1088 (peptide)
chain: YYQIIKRPMDLSII
B5: Q9H7S7 16-29 (peptide)
chain: SRLTLLRPEKDGAA
B6: Q9P2Q0 703-716 (peptide)
chain: YVDVIKRPLVKNPV
B7: Q9HCL0 744-757 (peptide)
chain: YQHHPKRPSRQIHK
B8: Q9BTL3 26-39 (peptide)
chain: YQEYLKRPPESPPI
B9: Q9HBQ8 81-94 (peptide)
chain: SVGRPTRPSRGPWR
B10: Q9P2F9 337-350 (peptide)
chain: SQKAFKRPSDLRQH
B11: Q9NPM2 248-262 (peptide)
chain: SQPGPAKPPAHRPS
B12: Q96LR7 16-30 (peptide)
chain: YRLPPTRPPASVSP
B13: Q9Y397 160-173 (peptide)
chain: YTSKIFRPPRASHS
B14: Q9UD05 393-407 (peptide)
chain: YYLLPERPPYLDKY
B15: O75042 916-929 (peptide)
chain: YSSSLERPRKLRAV
B16: Q9BYN7 579-592 (peptide)
chain: SSKEFNRPDKLKAH
B17: Q9UBX1 412-425 (peptide)
chain: YRHGISRPLRPLSS
B18: Q9H7S7 172-185 (peptide)
chain: SRLTLLRPKKDGAA
B19: Q12933 37-50 (peptide)
chain: SRNVLRRPFQAQSG
B20: P49810 64-78 (peptide)
chain: SSGVPGRPPGLEEE
B21: O43734 232-245 (peptide)
chain: YPQDLPRPLRSREF
B22: Q13495 6-19 (peptide)
chain: YPNKIKRPSLEDVT
B23: O43308 48-62 (peptide)
chain: YTVPPARPPPPLTK
B24: O43670 455-469 (peptide)
chain: YQGGPPRPPMGMRP
B25: Q9NPG4 759-772 (peptide)
chain: YRQQPKRPQKHIQK
B26: Q9BTV6 12-25 (peptide)
chain: YPARPRRPASTAGS
B27: Q96H54 9-23 (peptide)
chain: SVRGPLRPPVRSPA
B28: Q03188 13-26 (peptide)
chain: YRRRFSRPSRARDI
B29: Q9H7S7 328-341 (peptide)
chain: SRLTLLRPEKDGTA
B30: Q92608 327-340 (peptide)
chain: STQGLRRPFGVAVM
B31: Q96ML3 75-89 (peptide)
chain: STPRPARPPSPTEQ

Key:
[1] = target: endophilin SH3 (SH3G2_HUMAN), Q99962; experiment: SPOT array
[2] = target: T1, amphyphisin SH3 (AMPH_HUMAN), P49418; experiment: SPOT array

Binder	normalised SPOT signal, Boehringer light units (BLU); mean over the file's lines of this peptide [1]	normalised SPOT signal, Boehringer light units (BLU); mean over the file's lines of this peptide [2]
B1	81.6	210
B2	143	116
B3	175	204
B4	85.7	78.4
B5	71.4	297
B6	29.7	26.4
B7	432	3940
B8	42.7	34.1
B9	5870	9540
B10	19	61.1
B11	176	39.8
B12	1510	150
B13	325	1790
B14	108	57.4
B15	137	78.3
B16	120	132

Binder	normalised SPOT signal, Boehringer light units (BLU); mean over the file's lines of this peptide [1]	normalised SPOT signal, Boehringer light units (BLU); mean over the file's lines of this peptide [2]
B17	867	1500
B18	159	199
B19	112	31.6
B20	57.8	50.9
B21	95.9	154
B22	94.9	24.9
B23	9170	211
B24	614	87.9
B25	183	103
B26	2010	4030
B27	5540	5070
B28	85.1	469
B29	112	242
B30	27.2	8.9
B31	9450	324
